# Values quoted from earlier work in paper PMC3012091, “The Concentration of Soluble Extracellular Amyloid-β Protein in Acute Brain Slices from CRND8 Mice” (PLoS ONE, 2010).
# Where two headings read alike, the source gives them in different places.
# Tests used:
# [1] = APP overexpressing mice
# From the text: Constant turn-over of Aβ was included in some model calculations by adjusting the concentrations of Aβ at every location within the tissue after each iterative step of the model. […] E ... || The half-life of Aβ in the model is a more likely source of inaccuracy as the half-lives of Aβ species are less clear from the literature. There are few published half-life measurements from APP overexpressing mice.
# [2] = human CNS
# From the text: Constant turn-over of Aβ was included in some model calculations by adjusting the concentrations of Aβ at every location within the tissue after each iterative step of the model.
# [3] = system: long-term potentiation (LTP); settings: 50–200 pM Aβ applied to acute hippocampal slices
# From the text: At these concentrations Aβ affects long-term potentiation (LTP) when applied to acute hippocampal slices.
# [4] = postmortem extraction of Aβ from brain tissue
Substance,half-life ([1]; in vivo dialysis),half-life of Aβ [2],effect on LTP [3],"half-life [1, 4]"
Amyloid-β protein [Aβ],4 h,8 to 9 h,both inhibition and enhancement,
"Aβ1–40: amyloid-β protein 1–40, literature half-life only",,,,≤ 0.7 h
"Aβ1–42: endogenous soluble extracellular amyloid-β protein 1–42 of CRND8 mice, measured by human beta amyloid(1–42) ELISA",,,,≤ 1.7 h
